Data reported in the Human Domainome abundance scans (Beltran et al. 2025).
± gives the uncertainty stated by the source.

B1: 1-phosphatidylinositol 4,5-bisphosphate phosphodiesterase gamma-2, residues 772 to 827; numbered along this chain, P16885 (parent)
chain: RTVKALYDYKAKRSDELSFCRGALIHNVSKEPGGWWKGDYGTRIQQYFPSNYVEDI

Variants of: B1
Experiment: abundance fitness (aPCA) (normalised: wild type 0, dead -1); higher = more abundant; growth selection in yeast, the domain comes from the species named
Conditions: Homo sapiens
RTVKALYDYKAKRSDELSFCRGALIHNVSKEPGGWWWGDYGTRIQQYFPSNYVEDI [K37W] showed an abundance fitness of -0.908 ± 0.22.
For RTVKALYDYKAKRSDELSFCRGALIHNVSKEPGGWWYGDYGTRIQQYFPSNYVEDI [K37Y], the abundance fitness was -0.301 ± 0.39.
In the case of RTVKALYDYKAKRSDELSFCRGALIHNVSKEPGGWWKGDEGTRIQQYFPSNYVEDI [Y40E], the abundance fitness is reported as -0.419 ± 0.26.
Work on RTVKALYDYKAKRSDELSFCRGALIHNVSKEPGGWWKGDDGTRIQQYFPSNYVEDI [Y40D] yielded an abundance fitness of -0.711 ± 0.47.
Work on RTVKALYDYKAKRSDELSFCRGALIHNVSKEPGGWWKGDQGTRIQQYFPSNYVEDI [Y40Q] yielded an abundance fitness of -0.312 ± 0.063.
RTVKALYDYKAKRSDELSFCRGALIHNVSKEPGGWWKGDVGTRIQQYFPSNYVEDI [Y40V] showed an abundance fitness of -0.216 ± 0.069.
For RTVKALYDYKAKRSDELSFCRGALIHNVSKEPGGWWKGDTGTRIQQYFPSNYVEDI [Y40T], the abundance fitness was -0.265 ± 0.09.
With RTVKALYDYKAKRSDELSFCRGALIHNVSKEPGGWWKGDWGTRIQQYFPSNYVEDI [Y40W] the abundance fitness was -0.713 ± 0.15.
RTVKALYDYKAKRSDELSFCRGALIHNVSKEPGGWWKGDRGTRIQQYFPSNYVEDI [Y40R] showed an abundance fitness of -0.498 ± 0.067.
RTVKALYDYKAKRSDELSFCRGALIHNVSKEPGGWWKGDMGTRIQQYFPSNYVEDI [Y40M] gave an abundance fitness of -0.336 ± 0.32.
RTVKALYDYKAKRSDELSFCRGALIHNVSKEPGGWWKGDAGTRIQQYFPSNYVEDI [Y40A] gave an abundance fitness of -0.3 ± 0.13.
Variant RTVKALYDYKAKRSDELSFCRGALIHNVSKEPGGWWKGDNGTRIQQYFPSNYVEDI [Y40N] has an abundance fitness of -0.284 ± 0.098.
RTVKALYDYKAKRSDELSFCRGALIHNVSKEPGGWWKGDHGTRIQQYFPSNYVEDI [Y40H] showed an abundance fitness of 0.031 ± 0.17.
RTVKALYDYKAKRSDELSFCRGALIHNVSKEPGGWWKGDLGTRIQQYFPSNYVEDI [Y40L] gave an abundance fitness of 0.041 ± 0.068.
RTVKALYDYKAKRSDELSFCRGALIHNVSKEPGGWWKGDKGTRIQQYFPSNYVEDI [Y40K] showed an abundance fitness of 0.189 ± 0.11.
In the case of RTVKALYDYKAKRSDELSFCRGALIHNVSKEPGGWWKGDCGTRIQQYFPSNYVEDI [Y40C], the abundance fitness is reported as -0.061 ± 0.089.
RTVKALYDYKAKRSDELSFCRGALIHNVSKEPGGWWKGDSGTRIQQYFPSNYVEDI [Y40S] showed an abundance fitness of -0.284 ± 0.093.
With RTVKALYDYKAKRSDELSFCRGALIHNVSKEPGGWWKGDGGTRIQQYFPSNYVEDI [Y40G] the abundance fitness was -0.864 ± 0.085.
With RTVKALYDYKAKRSDELSFCRGALIHNVSKEPGGWWKGDIGTRIQQYFPSNYVEDI [Y40I] the abundance fitness was 0.107 ± 0.12.
In the case of RTVKALYDYKAKRSDELSFCRGALIHNVSKEPGGWWKGDYGTCIQQYFPSNYVEDI [R43C], the abundance fitness is reported as -0.111 ± 0.11.
Variant RTVKALYDYKAKRSDELSFCRGALIHNVSKEPGGWWKGDYGTGIQQYFPSNYVEDI [R43G] has an abundance fitness of -0.01 ± 0.051.
RTVKALYDYKAKRSDELSFCRGALIHNVSKEPGGWWKGDYGTMIQQYFPSNYVEDI [R43M] showed an abundance fitness of -0.049 ± 0.079.
With RTVKALYDYKAKRSDELSFCRGALIHNVSKEPGGWWKGDYGTFIQQYFPSNYVEDI [R43F] the abundance fitness was -0.359 ± 0.17.
RTVKALYDYKAKRSDELSFCRGALIHNVSKEPGGWWKGDYGTIIQQYFPSNYVEDI [R43I] gave an abundance fitness of -0.377 ± 0.15.
Variant RTVKALYDYKAKRSDELSFCRGALIHNVSKEPGGWWKGDYGTQIQQYFPSNYVEDI [R43Q] has an abundance fitness of -0.039 ± 0.12.
Work on RTVKALYDYKAKRSDELSFCRGALIHNVSKEPGGWWKGDYGTKIQQYFPSNYVEDI [R43K] yielded an abundance fitness of -0.018 ± 0.1.
Variant RTVKALYDYKAKRSDELSFCRGALIHNVSKEPGGWWKGDYGTLIQQYFPSNYVEDI [R43L] has an abundance fitness of -0.139 ± 0.048.
In the case of RTVKALYDYKAKRSDELSFCRGALIHNVSKEPGGWWKGDYGTPIQQYFPSNYVEDI [R43P], the abundance fitness is reported as -0.909 ± 0.17.
In the case of RTVKALYDYKAKRSDELSFCRGALIHNVSKEPGGWWKGDYGTEIQQYFPSNYVEDI [R43E], the abundance fitness is reported as -0.033 ± 0.085.
RTVKALYDYKAKRSDELSFCRGALIHNVSKEPGGWWKGDYGTTIQQYFPSNYVEDI [R43T] showed an abundance fitness of -0.269 ± 0.068.
For RTVKALYDYKAKRSDELSFCRGALIHNVSKEPGGWWKGDYGTAIQQYFPSNYVEDI [R43A], the abundance fitness was 0.015 ± 0.065.
Work on RTVKALYDYKAKRSDELSFCRGALIHNVSKEPGGWWKGDYGTSIQQYFPSNYVEDI [R43S] yielded an abundance fitness of -0.199 ± 0.08.
Variant RTVKALYDYKAKRSDELSFCRGALIHNVSKEPGGWWKGDYGTHIQQYFPSNYVEDI [R43H] has an abundance fitness of 0.022 ± 0.092.
RTVKALYDYKAKRSDELSFCRGALIHNVSKEPGGWWKGDYGTVIQQYFPSNYVEDI [R43V] gave an abundance fitness of -0.349 ± 0.08.
Work on RTVKALYDYKAKRSDELSFCRGALIHNVSKEPGGWWKGDYGTDIQQYFPSNYVEDI [R43D] yielded an abundance fitness of -0.243 ± 0.15.
RTVKALYDYKAKRSDELSFCRGALIHNVSKEPGGWWKGDYGTNIQQYFPSNYVEDI [R43N] gave an abundance fitness of 0.097 ± 0.12.
RTVKALYDYKAKRSDELSFCRGALIHNVSKEPGGWWKADYGTRIQQYFPSNYVEDI [G38A] gave an abundance fitness of -0.83 ± 0.27.
Variant RTVKALYDYKAKRSDELSFCRGALIHNVSKEPGGWWKKDYGTRIQQYFPSNYVEDI [G38K] has an abundance fitness of -1.01 ± 0.44.
Work on RTVKALYDYKAKRSDELSFCRGALIHNVSKEPGGWWKSDYGTRIQQYFPSNYVEDI [G38S] yielded an abundance fitness of -1 ± 0.18.
For RTVKALYDYKAKRSDELSFCRGALIHNVSKEPGGWWKIDYGTRIQQYFPSNYVEDI [G38I], the abundance fitness was -0.765 ± 0.47.
Variant RTVKALYDYKAKRSDELSFCRGALIHNVSKEPGGWWKWDYGTRIQQYFPSNYVEDI [G38W] has an abundance fitness of -0.803 ± 0.19.
Work on RTVKALYDYKAKRSDELSFCRGALIHNVSKEPGGWWKRDYGTRIQQYFPSNYVEDI [G38R] yielded an abundance fitness of -0.959 ± 0.14.
RTVKALYDYKAKRSDELSFCRGALIHNVSKEPGGWWKLDYGTRIQQYFPSNYVEDI [G38L] gave an abundance fitness of -1.11 ± 0.2.
RTVKALYDYKAKRSDELSFCRGALIHNVSKEPGGWWKEDYGTRIQQYFPSNYVEDI [G38E] gave an abundance fitness of -0.595 ± 0.17.
For RTVKALYDYKAKRSDELSFCRGALIHNVSKEPGGWWKTDYGTRIQQYFPSNYVEDI [G38T], the abundance fitness was -0.821 ± 0.47.
In the case of RTVKALYDYKAKRSDELSFCRGALIHNVSKEPGGWWKVDYGTRIQQYFPSNYVEDI [G38V], the abundance fitness is reported as -0.851 ± 0.2.
Work on RTVKALYDYKAKRSDELSFCRGALIHNVSKEPGGWWKGQYGTRIQQYFPSNYVEDI [D39Q] yielded an abundance fitness of -0.958 ± 0.21.
